Data from US20040121386.

Columns and labels:
[1] = molecular target: unactive JNK1 (Upstate, Inc.)

B1: His-tagged MKK7γ1 (protein)
chain: AASSLEQKLSRLEAKLKQENREARRRIDLNLDISPQRPRPIIVITLSPAPAPSQRAALQLPLANDGGSRSPSSESSPQHPTPPARPRHMLGLPSTLFTPRSMESIEIDQKLQEIMKQTGYPTIGGQRYQAEINDLENLGEMGSGTCGQVWKMRFRKTGHVIAVKQMRRSGNKEENKRILMDLDVVLKSHDCPYIVQCFGTFITNTDVFIAMELMGTCAEKLKKRMQGPIPERILGKMTVAIVKALYYLKEKHGVIHRDVKPSNILLDERGQIKLCDFGISGRLVDSKAKTRSAGCAAYMAPERIDPPDPTKPDYDIRADVWSLGISLVELATGQFPYKNCKTDFEVLTKVLQEEPPLLPGHMGFSGDFQSFVKDCLTKDHRKRPKYNKLLEHSFIKRYETLEVDVASWFKDVMAKTESPRTSGVLSQPHLPFFR
phosphorylation in a two-step cascade kinase assay (γ-32P-ATP, SDS/PAGE, autoradiography) [1]: in turn was able to phosphorylate JNK1
phosphorylation in a two-step cascade kinase assay (γ-32P-ATP, SDS/PAGE, autoradiography) (unactive p38): MKK7γ1 was unable to phosphorylate p38
